The text below walks through data of patent publication US20050048071A1 (RUSH UNIVERSITY MEDICAL CENTER, published 2005).

Assay [1] has as its target HLA-A2.1 MHC class I molecules on T2 cells (human). As to the kind of experiment: T2 cells pulsed with peptide, anti-HLA-A2.1 flow cytometry; Brefeldin A treatment: 6 hr. On the technique in general: Flow cytometry measures light scatter and fluorescence of single cells or particles in a stream.
Procedure: (§1) T2 cells were washed and resuspended in serum-free AIM-VTM (Gibco-Life Technologies, Rockville, Md.) at a final concentration of 1×10⁶ cells/ml and transferred into a 24-well tissue culture plate. […] After incubation, cells were washed once with PBS containing 3% FCS, and stained with mouse anti-HLA-A2.1 monoclonal antibody for 15 minutes at 4° C. After washing, the cells were incubated with goat anti-mouse IgG(F(ab′)2)-FITC for 15 minutes at 4° C. The cells were washed once, and fluorescence was measured on a FACSort™ flow cytometer (Becton Dickson, San Jose, Calif.). The fluorescence index was calculated as follows: (mean channel fluorescence of sample−mean channel fluorescence of unstained control cells)/mean channel fluorescence of unstained control cells.
The target is the same in assay [2]. As to the kind of experiment: T2 cells pulsed with peptide, anti-HLA-A2.1 flow cytometry; Brefeldin A treatment: 4 hr.
Procedure: as §1
Assay [3] shares this target. As to the kind of experiment: T2 cells pulsed with peptide, anti-HLA-A2.1 flow cytometry; Brefeldin A treatment: None.
Procedure: as §1
Assay [4] shares this target. As to the kind of experiment: T2 cells pulsed with peptide, anti-HLA-A2.1 flow cytometry; Brefeldin A treatment: 2 hr.
Procedure: as §1
Assay [5] shares this target. As to the kind of experiment: T2 cells pulsed with peptide, anti-HLA-A2.1 flow cytometry; Brefeldin A treatment: 0 hr.
Procedure: as §1
Assay [6] has the same target. The experiment in a line: T2 cells pulsed with peptide, anti-HLA-A2.1 flow cytometry; Brefeldin A treatment: Overnight.
Procedure: as §1

B1: CD20 peptide FIRAHTPYI (SEQ ID NO: 8) (peptide)
peptide: FIRAHTPYI
notes: Synthetic nonamer
As to B1, the “binding score (HLA-A2.1 fluorescence on T2 cells)” value (“binding score” below) in assay [1] is 154; in assay [2] it was 192; in assay [3] it was 167; in assay [4], 215; in assay [5], 232; in assay [6] it was 250.

B2: CD20 peptide AISGMILSI (SEQ ID NO: 7) (peptide)
peptide: AISGMILSI
notes: Synthetic nonamer
B2: the “binding score” value in assay [1] was 144; in assay [2] it was 165; in assay [3] it was 162; in assay [4], 256; in assay [5], 220; in assay [6], 232.

B3: CD20 peptide SHFLKMESL (SEQ ID NO: 11) (peptide)
peptide: SHFLKMESL
notes: Synthetic nonamer
As for B3, the “binding score” value in assay [1] was 127; in assay [2], 199; in assay [3], 172; in assay [4] it was 218; in assay [5], 216; in assay [6], 277.

B4: CD19 peptide RLLFFLLFL (SEQ ID NO: 1) (peptide)
peptide: RLLFFLLFL
notes: Synthetic nonamer
For B4, the “binding score” value in assay [1] turned out to be 152; in assay [2], 174; in assay [4], 202; in assay [5] it was 167; in assay [6], 248.

B5: CD19 peptide LLFLTPMEV (SEQ ID NO: 3) (peptide)
peptide: LLFLTPMEV
notes: Synthetic nonamer
Consider B5, for which the “binding score” value was 573 in assay [1]; 880 in assay [2]; 556 in assay [3]; 924 in assay [4]; 770 in assay [5]; 453 in assay [6].

B6: CD19 peptide KLMSPKLYV (SEQ ID NO: 4) (peptide)
peptide: KLMSPKLYV
notes: Synthetic nonamer
As to B6, the “binding score” value in assay [1] worked out at 642; in assay [2] it was 796; in assay [5], 683; in assay [6] it was 540.

B7: CD19 peptide LLFFLLFLV (SEQ ID NO: 5) (peptide)
peptide: LLFFLLFLV
On to B7, for which the “binding score” value in assay [1] was determined as 143; in assay [2], 163; in assay [3] it was 164; in assay [4], 202; in assay [5], 200; in assay [6] it was 200.

B8: CD19 peptide TLAYLIFCL (SEQ ID NO: 2) (peptide)
peptide: TLAYLIFCL
notes: Synthetic nonamer
Take B8: the “binding score” value in assay [1] is 387; in assay [2], 513; in assay [3], 363; in assay [4] it was 608; in assay [5], 530; in assay [6], 312.

B9: CD20 peptide SLNFIRAHT (SEQ ID NO: 9) (peptide)
peptide: SLNFIRAHT
notes: Synthetic nonamer
For the molecule B9, the “binding score” value in assay [1] is 128; in assay [2], 180; in assay [3], 172; in assay [4], 200; in assay [5] it was 212; in assay [6] it was 195.

B10: CD20 peptide SLFLGILSV (SEQ ID NO: 6) (peptide)
peptide: SLFLGILSV
notes: Synthetic nonamer
Turning to B10, the “binding score” value in assay [1] stood at 770; in assay [2] it was 762; in assay [3] it was 637; in assay [4], 703; in assay [5] it was 672; in assay [6] it was 410.

B11: CD20 peptide LKMESLNFI (SEQ ID NO: 10) (peptide)
peptide: LKMESLNFI
notes: Synthetic nonamer
With B11, the “binding score” value was 190 in assay [1]; 227 in assay [2]; 215 in assay [3]; 291 in assay [4]; 245 in assay [5]; 225 in assay [6].
